Reference: the supplement of paper PMC7125110
± gives the standard error. Fewer inactive variants are shown than the library holds.

B1: glmS ribozyme (parent)
chain: AUAAAAGCGCCAGAACUACAGAAAUGUAGUUGACGAGGAGGAGGUUUAUCGAAUUUUCGGCGGAUGCCUCCAAA

Experiments:
Details in all cases: with glucosamine-6-phosphate
[1] = variants of: B1; assay: self-cleavage kobs at 40 uM GlcN6P; higher = faster cleavage; RNA array
Outline: (§1)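 The measurements used barcoded ribozyme variants on sequenced MiSeq chips, transcribed in situ by E. coli RNA polymerase and tracked at 37 °C with a hybridised Cy3 probe. Glucosamine-6-phosphate, 40 μM to 10 mM in HEPES/KCl/Mg(OAc)2 buffer, was flowed in while tiles were imaged over ~14 h. Baseline-normalised signals, also normalised to non-cleaving reference variants, gave per-tile medians that were fit to one- or two-exponential decays for kobs. kcat and KM resulted from weighted Michaelis–Menten fits across concentrations.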

[2] = variants of: B1; assay: self-cleavage kobs at 160 uM GlcN6P; higher = faster cleavage; RNA array
Outline: as §1

[3] = variants of: B1; assay: self-cleavage kobs at 640 uM GlcN6P; higher = faster cleavage; RNA array
Outline: as §1

[4] = variants of: B1; assay: self-cleavage kobs at 2500 uM GlcN6P; higher = faster cleavage; RNA array
Outline: as §1

[5] = variants of: B1; assay: self-cleavage kobs at 10000 uM GlcN6P; higher = faster cleavage; RNA array
Outline: as §1

| Variant | self-cleavage kobs at 40 uM GlcN6P [1] [s⁻¹] | self-cleavage kobs at 160 uM GlcN6P [2] [s⁻¹] | self-cleavage kobs at 640 uM GlcN6P [3] [s⁻¹] | self-cleavage kobs at 2500 uM GlcN6P [4] [s⁻¹] | self-cleavage kobs at 10000 uM GlcN6P [5] [s⁻¹] |
| --- | --- | --- | --- | --- | --- |
| G29A A48G | < 1e-05 | < 1e-05 | < 1e-05 |  |  |
| C8G G29U | < 1e-05 | < 1e-05 | < 1e-05 | < 1e-05 | < 1e-05 |
| A6C G32C | < 1e-05 | < 1e-05 |  | < 1e-05 | < 1e-05 |
| G9A C50G U65G G66C C70G | 5.55e-05 ± 2.4e-05 |  |  |  | 4.91e-05 ± 1.6e-05 |
| G7U G29C C61U | < 1e-05 |  |  |  |  |
| C10U G43U U57G | < 1e-05 |  |  |  | < 1e-05 |
| C10A G32A G51A | < 1e-05 |  |  |  |  |
| G13C U30C A36G G41C C70A | < 1e-05 | < 1e-05 | < 1e-05 | < 1e-05 | < 1e-05 |
| A36G A64U U65G | < 1e-05 |  | < 1e-05 | < 1e-05 | < 1e-05 |
| C11U C16U | 6.96e-05 ± 2e-05 | 8.34e-05 ± 2.3e-05 | 0.000352 ± 9.4e-05 | 0.00134 ± 0.00058 | 0.00196 ± 0.0007 |
| A53G U54A | 0.000851 ± 0.00024 | 0.00267 ± 0.00057 | 0.0083 ± 0.0014 | 0.0106 ± 0.0043 | 0.0724 ± 0.027 |
| A53G U54G | 0.00114 ± 0.00028 | 0.00165 ± 0.00047 | 0.00511 ± 0.0011 | 0.00388 ± 0.0012 | 0.081 ± 0.028 |
| C16U A53C | 0.000147 ± 2.2e-05 | 0.000234 ± 6.4e-05 | 0.00248 ± 0.00046 | 0.00358 ± 0.00061 | 0.00687 ± 0.0013 |
| G7C U47C | < 1e-05 | < 1e-05 | < 1e-05 |  | < 1e-05 |
| A48U G62C C70U | < 1e-05 |  | < 1e-05 | < 1e-05 | < 1e-05 |
| G9U G29C A33U A64U | < 1e-05 |  | < 1e-05 | < 1e-05 | < 1e-05 |
| A39U U54G C58U | < 1e-05 |  |  |  |  |
| C10U A15C G43U C50U U57G G59A | < 1e-05 | < 1e-05 | < 1e-05 | < 1e-05 | < 1e-05 |
